According to publication PMC11059233:

Molecular target: HLA-B*35:01 expressed in C1R cells (C1R.B*35:01) (human | human (endogenous in C1R))

Question: For influenza B virus PB2_(66-70) peptide, which IFN-γ+TNF+ CD8+ T cells (expanded with pool J) after restimulation with peptide-pulsed C1R.B*35:01; donors responding is on record?
Answer: 1 of 6 donors
